# Experiments:
# [1] = system: C3H 10T1/2(clone 8) cells; assay: In vitro transformation assay (MCA-induced); format: cell-based; settings: for transformed foci in the dishes scored / Fraction of dishes containing transformed foci / No. of dishes with transformed foci/No. of dishes: MCA 1 μg/ml 24 hr, then conjugates 1.0 μg/ml for first three weeks; for Fraction of dishes containing transformed foci / No. of dishes with transformed foci/No. of dishes: scored at six weeks; for retention of the biological (anti-transformation) activity of BBI: 1.0 μg/ml
# Description: Transformation assays were carried out using C3H 10T1/2(clone 8) cells according to the published recommendations [Reznikoff, C. A. et al. (1973) Cancer. Res. 33, 3239–3249; Reznikoff, C. A. et al. (1973) Cancer. Res. 33, 3231–3238]. Stock cultures of mycoplasma-free cells were maintained by passing 50,000 cells per 75 cm^2 flask every seven days. Using this schedule, the cells were always passed approximately 2 days before reaching confluence. The stock culture was grown in Eagle's basal medium supplemented with 10% FBS, penicillin (100 units), and streptomycin (100 μg) and used for the transformation assays at passages of 9 to 14. The cells were passed by treating the stock cells with trypsin (0.1%) in PBS for 5 min and quenching the trypsin with 5 ml of the medium. This procedure was adapted to minimize spontaneous transformation in the stock cultures and maximize the plating efficiency in the petri dishes. The FBS stock used in the cultures was pre-screened to ensure that the serum was able to support the expression and the growth of the transformed cells.
# For the transformation assays, C3H 10T1/2 cells (1000/dish) were seeded into 60 mm petri dishes and allowed to grow in a humidified 5% CO2 atmosphere in Eagle's basal medium, supplemented with 10% FBS, penicillin (100 units), and streptomycin (100 μg), for 24 hr. Subsequently, the cells were initiated by treatment with 25 μl of the 3-methylcholanthrene (MCA) in acetone stock solution ([…]) to a final concentration of 1 μg/ml of MCA (5 μg/5 ml). The cells were allowed to grow in the presence of the carcinogen or solvent for 24 hr, and the medium in each dish was then replaced with fresh medium containing no carcinogen or solvent. The medium in the dishes was replaced twice per week for the first two weeks of the assay, and thereafter once a week for the remainder four weeks of the assay. In the experiments designed to determine the transformation inhibitory activity of the conjugates, the cells were maintained in the medium containing the conjugates (1 μg/ml) for the first three weeks of the assay; thereafter, the cells were maintained in medium containing no added conjugates.
# Six weeks after the carcinogen treatment, the cells were inspected under a microscope for adherence to the culture dishes and were washed with PBS and then fixed in 100% methanol. The fixed monolayers were then stained with Giemsa stain. 20 dishes per group were treated in each experiment. In addition to the test groups, all the transformation assays contained at least three other groups: negative control (not treated with carcinogen or solvent), acetone control (treated with 25 μl of acetone), and positive control [treated with MCA (1 μg/ml) in 25 μl of acetone]. The transformed foci (>3 mm in diameter) in the plates were studied under a microscope and classified according to published guidelines as types I, II, or III [Landolph, J. R. (1985) Transfomatin assay of established cell lines: Mechanism and Application (ed. Kakunaga, T., and Yamasaki, H.) IARC Scientific Publications, Lyon, France pp. 185–201]. Briefly, type III foci were dense, multilayered, basophilic, areas of cell growth which stained to a deep blue color with Giemsa and had rough criss-crossed edges. Type II foci were also dense, multilayered, areas of cell growth, but were stained to a purple color with Giemsa and had smoother, more defined edges compared to Type III foci. Type I foci were not scored in the assay.
# BBI, either as the free protein or in conjugated form to palmitic or oleic acid, was added to the cultures at 1.0 μg/ml for the first three weeks of the transformation assay period starting immediately after the MCA treatment. MCA-treated cells were exposed to 3-methylcholanthrene, dissolved in 25 /μl of acetone, at a concentration of 1 μg/ml for 24 hr. Acetone-treated cells were exposed to 25 μl of acetone for 24 hr only. […]
# C3H 10T1/2 cells = assay: Plating efficiency in conjunction with transformation assay; format: cell-based; settings: 200 cells/dish, 10 days; conjugates 1.0 μg/ml after MCA 1 μg/ml 24 hr
# Description: The plating efficiency (PE) of the cells was also studied in conjunction with each of the transformation assays. To determine the PE of the cells in the different treatment groups, cells (200 cells/dish) were seeded into three 60-mm petri dishes per experiment group and treated in the identical manner as the transformation assay cells. The cells in these assays were terminated at 10 days, fixed with 100% methanol, and stained with giemsa; the colonies of 50 cells or more visible under a microscope were then counted. The plating efficiency is defined as the (number of colonies/number of cells seeded)*100.
# [2] = system: Human colon carcinoma cells (Caco-2)
# [3] = mouse, in vivo, iv, 3 mg/kg
# Caco-2 monolayers = assay: Transport of single- and multiple-conjugates across Caco-2 monolayers in transwells; format: cell-based, Human; settings: for order of the transport extent (cumulative transport): Caco-2 transwells, n=3
# Description: Confluent cell monolayers, 2 to 3 weeks old, and having a TEER value of approximately 500 Ωcm^2, were first incubated with Dulbecco's MEM containing 1% of FBS for 30 min at 37° C. Subsequently, the incubation medium was removed, and the ^125I-BBI (10 μg/ml) conjugates in 1.5 ml of the medium was added to the apical chamber of the transwells. To the basal chamber, 2.5 ml of the medium was added and the transwells were incubated at 37° C. At predetermined times, the entire basal chamber medium (2.5 ml) from each transwell was removed and counted for radioactivity using a gamma counter. In each experiment, typically seven samples were taken at 1, 2, 3, 4, 5, 6 and 24 hr post-incubation. After the 24 hr samples were taken, the cell monolayers were rinsed three times with ice-cold PBS, cut out of the inserts, and counted for accumulated radioactivity using a gamma counter.
# The integrity of the ^125I-BBI conjugates transported across the monolayers was studied using Sephadex G50 gel-filtration chromatography. Briefly, after the basal medium was sampled at 24 hr, 1.0 ml of the medium was centrifuged at 2000 rpm and then eluted from a G50 column (10 ml) using PBS; 1 ml fractions were collected and the fraction-associated radioactivity was determined using a gamma counter. Intact conjugates eluted at column void volume and fragments smaller than 1 kDa were eluted at or above the column volume.
# In the transwell experiments, the conjugates were incubated with the apical side of the cells for 1 hr at 37° C. The transwells were then rinsed three times with ice-cold PBS and then reincubated with serum free medium. The release of the conjugates into the apical and the basal medium was chased for 24 hr by counting the entire basal or the apical medium at different times. The total counts obtained at the end of the chase period (transwells+media counts were added, and the release of the conjugates (% of total) at different times was calculated. To ensure that the counts obtained in the transwells at 24 hr were due to the presence of the conjugates in the cells and not non-specific binding to the plastic, the transwells were exposed to trypsin for 10 min, rinsed three times with ice-cold pbs, and subsequently counted for accumulated radioactivity.
# BBI was modified with 2 or 4 palmitic acids, and the transport was determined in transwells. The cumulative transport of BBI, BBI modified with 4 palmitic acids, and BBI modified with 2 palmitic acids in Caco-2 monolayers were determined as BBI (ng/monolayer) ± SEM, n=3. The order of the transport extent was BBIssPal(4)>BBI>BBIssPal(2). The results of the internalization of the conjugates into the same cells were determined as the ng of BBI internalized per monolayer. […] The basal media obtained at 24 hr from the transwells was analyzed using a G50 column. […] However, a small, but significant, amount of the basal media of BBIssPal(2) consisted of intact conjugate. This quantity consisted of between about 10 and about 20% of the total radioactivity present in the basal medium.
Molecule,transformed foci in the dishes scored [1],Fraction of dishes containing transformed foci [1],No. of dishes with transformed foci/No. of dishes [1],Plating Efficiency (%) (C3H 10T1/2 cells),retention of the biological (anti-transformation) activity of BBI [1],binding to BSA [2],"internalization, fold increase over that of BBI [2]",reduction of uptake after reduction with DTT [2],reduction of uptake by defatted-BSA [2],"uptake, fold higher than 125I-BBI [2]","uptake, fold higher than native-BBI [2]","uptake, fold higher than that of 125I-BBI [2]","kidney clearance, fold lower than native-BBI [3]","liver accumulation, fold higher than BBI [3]","lung accumulation, fold higher than BBI [3]",retention in the liver at 24 hr [3],"blood levels, fold higher than BBI [3]",order of the transport extent (cumulative transport) (Caco-2 monolayers),transcytosis across the monolayers (G50 analysis of basal media) (Caco-2 monolayers; basal media at 24 hr),"internalization into the cells (rank) (Caco-2 monolayers; same Caco-2 monolayers, per monolayer)"
"Cc1ccc2cc3c(ccc4ccccc43)c3c2c1CC3 [MCA, 3-methylcholanthrene, reference compound]",6 out of the 19 dishes scored contained type III foci,0.32,6/19,21 ± 3.0%,–,–,–,–,–,–,–,–,–,–,–,–,–,–,–,–
"BBIssPal: palmityl disulfide conjugate of BBI, made from thiolated BBI and Pal-PDC (conjugate, UniProt P01055 40-110, looked up, palmityl disulfide conjugate, palmityl disulfide conjugate of BBI, made from thiolated BBI and Pal-PDC) Bowman-Birk type proteinase …: DDESSKPCCDQCACTKSNPPQCRCSDMRLNSCHSACKSCICALSYPAQCFCVDITDFCYEPCKPSEDDKEN",one type II focus out of the 20 dishes,0.05,1/20,23 ± 3.0%,retained the original biological activity of BBI,binds strongly to BSA,35 fold,approximately 80%,82%,approximately 100 fold,10 fold,80 fold,about 4 fold,approximately 5 fold,approximately 2 fold,remained high in the liver even at 24 hr post-injection,–,–,–,–
"BBIssOleic: oleic acid conjugated BBI, made by the identical procedure as BBIssPal (conjugate, UniProt P01055 40-110, looked up, oleic acid disulfide conjugate, oleic acid conjugated BBI, made by the identical procedure as BBIssPal) Bowman-Birk type proteinase …: DDESSKPCCDQCACTKSNPPQCRCSDMRLNSCHSACKSCICALSYPAQCFCVDITDFCYEPCKPSEDDKEN",no transformed foci,0,0/20,24 ± 3.5%,retained the original biological activity of BBI,–,–,–,–,about 108 fold,–,–,about 4 fold,about 4 fold,about 2 fold,significant levels of the conjugate present in the liver even at 24 hr post-injection,about 4 fold,–,–,–
"BBIssPal(4): BBI modified with 4 palmitic acids (conjugate, UniProt P01055 40-110, looked up, 4 palmityl disulfide groups, BBI modified with 4 palmitic acids) Bowman-Birk type proteinase …: DDESSKPCCDQCACTKSNPPQCRCSDMRLNSCHSACKSCICALSYPAQCFCVDITDFCYEPCKPSEDDKEN",–,–,–,–,–,–,–,–,–,–,–,–,–,–,–,–,–,BBIssPal(4)>BBI>BBIssPal(2),neither BBI nor BBIssPal(4) was transcytosed,highest uptake
"BBIssPal(2): BBI modified with 2 palmitic acids (conjugate, UniProt P01055 40-110, looked up, 2 palmityl disulfide groups, BBI modified with 2 palmitic acids) Bowman-Birk type proteinase …: DDESSKPCCDQCACTKSNPPQCRCSDMRLNSCHSACKSCICALSYPAQCFCVDITDFCYEPCKPSEDDKEN",–,–,–,–,–,–,–,–,–,–,–,–,–,–,–,–,–,BBIssPal(4)>BBI>BBIssPal(2),–,–

# Reference: patent US7052704B2, “Methods and compositions for lipidization of hydrophilic molecules” (University of Southern California, priority 1995, dated 2006)
